How the values were obtained:
[1] = target: Melbournevirus penton base protein (Melbournevirus); test: cryo-EM structure
[2] = target: Melbournevirus major capsid protein (Melbournevirus); test: cryo-EM structure

| Substance | stoichiometry N [1] | stoichiometry N [2] |
| --- | --- | --- |
| Melbournevirus penton base protein (natural protein) | 5 |  |
| Melbournevirus major capsid protein (natural protein) |  | 3 |

— article doi:10.1101/2021.07.14.452405
